Assay [1] addresses Recombinant trimeric fragment of human SP-A1 (rfhSP-A) (human). The experiment in a line: other fluorescence titration; intrinsic tryptophan fluorescence of SP-A (75 nM) or rfhSP-A (52 nM) titrated with LL-37; 25°C, 5 mM Tris-HCl pH 7.4, without NaCl; excitation 295 nm; fit to the Hill equation; apparent KD.
Assay [2] has as its target Human surfactant protein A (native SP-A) (human) (UniProt Q8IWL2). The experiment in a line: other fluorescence titration; intrinsic tryptophan fluorescence of SP-A (75 nM) or rfhSP-A (52 nM) titrated with LL-37; 25°C, 5 mM Tris-HCl pH 7.4, with 150 mM NaCl; excitation 295 nm; fit to the Hill equation; apparent KD.
For assay [3], the target named is Recombinant trimeric fragment of human SP-A1 (rfhSP-A) (human). The assay is described as above.
In assay [4] the target is Human surfactant protein A (native SP-A) (human) (UniProt Q8IWL2). Kind of assay: native gel or EMSA + AUC + other: electron microscopy; degree of oligomerization of isolated SP-A: electrophoresis under nondenaturing conditions, electron microscopy and analytical ultracentrifugation, as reported elsewhere (refs 28, 29). A general note: A gel shift assay detects complexes by their altered migration in electrophoresis.

Usually stoichiometry N stands for the number of molecules, sites or subunits per partner or assembly.

As for Human cathelicidin LL-37 (peptide), the Kd in assay [1] came out at 73.5 pM; in assay [2] it was 450 pM; in assay [3] it was 1200 pM.
On to “Human surfactant protein A (native SP-A) (from UniProt Q8IWL2 21-248) (natural protein)”, for which, in assay [4], the stoichiometry N is more than 18 subunits.

The values above are taken from article PMC9464622, “The collectin SP-A and its trimeric recombinant fragment protect alveolar epithelial cells from the cytotoxic and proinflammatory effects of human cathelicidin in vitro” (Frontiers in Immunology, 2022).
